Where two headings read alike, the source gives them in different places.
Key:
[1] = biological target: human MSLN-R3-rFc protein (human) (UniProt Q13421); test: ELISA, antibody 0.032 nM
[2] = biological target: monkey MSLN full-length protein on HEK293T cells (monkey); test: FACS, HEK293T-monkey MSLN cells
[3] = biological target: monkey MSLN full-length protein on HEK293T cells (monkey); test: FACS, HEK293T-monkey MSLN cells; remark: listed apart in the source
[4] = biological target: human MSLN protein endogenously expressed on tumor cells (Hela, OVCAR3) (human) (UniProt Q13421); test: FACS, OVCAR3 cells, antibody 20 nM
Chain of human MSLN protein endogenously expressed on tumor cells (Hela, OVCAR3) (human) (Q13421 other isoform, or with tags, fused parts or gaps): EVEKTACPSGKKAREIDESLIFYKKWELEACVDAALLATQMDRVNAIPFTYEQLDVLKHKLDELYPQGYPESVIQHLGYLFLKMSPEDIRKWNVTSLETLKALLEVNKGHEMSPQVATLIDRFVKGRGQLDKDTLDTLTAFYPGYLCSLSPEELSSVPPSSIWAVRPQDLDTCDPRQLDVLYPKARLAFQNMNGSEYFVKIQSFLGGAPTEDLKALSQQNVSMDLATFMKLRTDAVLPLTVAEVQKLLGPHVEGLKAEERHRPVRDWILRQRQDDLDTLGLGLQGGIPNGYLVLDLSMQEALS

[5] = biological target: human MSLN protein endogenously expressed on tumor cells (Hela, OVCAR3) (human) (UniProt Q13421); test: FACS, OVCAR3 cells, antibody 0.8 nM
[6] = biological target: human MSLN protein endogenously expressed on tumor cells (Hela, OVCAR3) (human) (UniProt Q13421); test: FACS, OVCAR3 cells, antibody 100 nM
[7] = biological target: human MSLN protein endogenously expressed on tumor cells (Hela, OVCAR3) (human) (UniProt Q13421); test: FACS, OVCAR3 cells, antibody 0.032 nM
[8] = biological target: human MSLN protein endogenously expressed on tumor cells (Hela, OVCAR3) (human) (UniProt Q13421); test: FACS, OVCAR3 cells, antibody 0.0064 nM
[9] = biological target: human MSLN protein endogenously expressed on tumor cells (Hela, OVCAR3) (human) (UniProt Q13421); test: FACS, OVCAR3 cells, antibody 0.00128 nM
[10] = biological target: human MSLN full-length protein, recombinant, on CHO-K1 or HEK293T cells (human) (UniProt Q13421); test: FACS, HEK293T-hMSLN-B8 cells, antibody 20 nM
Chain of human MSLN full-length protein, recombinant, on CHO-K1 or HEK293T cells (human) (Q13421 other isoform, or with tags, fused parts or gaps limits assumed): as the sequence (Q13421 other isoform, or with tags, fused parts or gaps) above, with R14P counted along it

[11] = biological target: human MSLN full-length protein on transfected cells (CHO-K1-hMSLN clones 2C8, 2D11, 2C5; HEK293T-hMSLN clones B8, 2A4, 2A7) (human) (UniProt Q13421); test: FACS, CHO-K1-hMSLN-2C8 cells, antibody 0.8 nM
Chain of human MSLN full-length protein on transfected cells (CHO-K1-hMSLN clones 2C8, 2D11, 2C5; HEK293T-hMSLN clones B8, 2A4, 2A7) (human) (Q13421 other isoform, or with tags, fused parts or gaps limits assumed): as the sequence (Q13421 other isoform, or with tags, fused parts or gaps) above, with R14P counted along it

[12] = biological target: monkey MSLN full-length protein on HEK293T cells (monkey); test: FACS, HEK293T-monkey-MSLN cells, antibody 20 nM
[13] = biological target: human MSLN full-length protein on transfected cells (CHO-K1-hMSLN clones 2C8, 2D11, 2C5; HEK293T-hMSLN clones B8, 2A4, 2A7) (human) (UniProt Q13421); test: FACS, CHO-K1-hMSLN-2C8 cells, antibody 0.0064 nM
[14] = biological target: human MSLN full-length protein on transfected cells (CHO-K1-hMSLN clones 2C8, 2D11, 2C5; HEK293T-hMSLN clones B8, 2A4, 2A7) (human) (UniProt Q13421); test: FACS, CHO-K1-hMSLN-2C8 cells, antibody 0.00128 nM
[15] = biological target: monkey MSLN full-length protein on HEK293T cells (monkey); test: FACS, HEK293T-monkey-MSLN cells, antibody 0.0064 nM
[16] = biological target: chimeric human MSLN-R3 / chicken MSLN-R1-2 protein on HEK293T cells (clone A5) (chicken; human); test: FACS, HEK293T-hR3/chickR1-2-A5 cells, antibody 20 nM
Chain of chimeric human MSLN-R3 / chicken MSLN-R1-2 protein on HEK293T cells (clone A5) (chicken; human) (Q13421 495-614, change not shown): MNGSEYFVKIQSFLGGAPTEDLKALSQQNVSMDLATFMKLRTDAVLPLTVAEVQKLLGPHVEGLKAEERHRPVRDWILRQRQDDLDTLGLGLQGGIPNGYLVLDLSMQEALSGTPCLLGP

[17] = biological target: chimeric human MSLN-R3 / chicken MSLN-R1-2 protein on HEK293T cells (clone A5) (chicken; human); test: FACS, HEK293T-hR3/chickR1-2-A5 cells, antibody 0.2 nM
[18] = biological target: human MSLN full-length protein, recombinant, on CHO-K1 or HEK293T cells (human) (UniProt Q13421); test: competitive FACS on CHO-K1-human MSLN-2C8 cells vs Biotin-Tab142; competitor at 4 nM
[19] = biological target: human MSLN full-length protein, recombinant, on CHO-K1 or HEK293T cells (human) (UniProt Q13421); test: competitive FACS on CHO-K1-human MSLN-2C8 cells vs Biotin-Tab131; competitor at 8 nM
[20] = biological target: human MSLN full-length protein, recombinant, on CHO-K1 or HEK293T cells (human) (UniProt Q13421); test: competitive FACS on CHO-K1-human MSLN-2C8 cells vs Biotin-Tab131; competitor at 40 nM
[21] = biological target: human MSLN full-length protein, recombinant, on CHO-K1 or HEK293T cells (human) (UniProt Q13421); test: competitive FACS on CHO-K1-human MSLN-2C8 cells vs Biotin-Tab142; competitor at 100 nM
[22] = biological target: human MSLN full-length protein, recombinant, on CHO-K1 or HEK293T cells (human) (UniProt Q13421); test: competitive FACS on CHO-K1-human MSLN-2C8 cells vs Biotin-Tab142; competitor at 1.6 nM
[23] = biological target: human MSLN full-length protein, recombinant, on CHO-K1 or HEK293T cells (human) (UniProt Q13421); test: competitive FACS on CHO-K1-human MSLN-2C8 cells vs Biotin-Tab142; competitor at 200 nM
[24] = biological target: human MSLN full-length protein, recombinant, on CHO-K1 or HEK293T cells (human) (UniProt Q13421); test: competitive FACS on CHO-K1-human MSLN-2C8 cells vs Biotin-Tab131; competitor at 1.6 nM
[25] = biological target: human MSLN full-length protein, recombinant, on CHO-K1 or HEK293T cells (human) (UniProt Q13421); test: competitive FACS on CHO-K1-human MSLN-2C8 cells vs Biotin-Tab131; competitor at 200 nM
[26] = biological target: human MSLN full-length protein, recombinant, on CHO-K1 or HEK293T cells (human) (UniProt Q13421); test: competitive FACS on CHO-K1-human MSLN-2C8 cells vs Biotin-Tab131; competitor at 0.32 nM
[27] = biological target: human MSLN full-length protein, recombinant, on CHO-K1 or HEK293T cells (human) (UniProt Q13421); test: competitive FACS on CHO-K1-human MSLN-2C8 cells vs Biotin-Tab131; competitor at 0.0128 nM

hIgG1 (antibody)
OD450 nm [1]: 0.11
Max MFI [2]: 104
Max MFI [3]: 137
FACS signal (MFI) [4]: 78
MFI [4]: 329
FACS signal (MFI) [5]: 76
FACS signal (MFI) [6]: 93
FACS signal (MFI) [7]: 75
FACS signal (MFI) [8]: 74
FACS signal (MFI) [9]: 75
MFI [10]: 68
FACS signal (MFI) [11]: 80
FACS signal (MFI) [12]: 84
FACS signal (MFI) [13]: 65
FACS signal (MFI) [14]: 116
FACS signal (MFI) [15]: 85
MFI [16]: 74
MFI [17]: 73
MFI of Biotin-Tab142 [18]: 43100
MFI of Biotin-Tab131 [19]: 13000
MFI of Biotin-Tab131 [20]: 12500
MFI of Biotin-Tab142 [21]: 41200
MFI of Biotin-Tab142 [22]: 22700
MFI of Biotin-Tab142 [23]: 24000
MFI of Biotin-Tab131 [24]: 12600
MFI of Biotin-Tab131 [25]: 12900
MFI of Biotin-Tab131 [26]: 12700
MFI of Biotin-Tab131 [27]: 12600
